Laboratory results from patent US20140296131A1 (Novo Nordisk, published 2014).
Where no end group is shown, it is not given here. [ ]: non-standard residue; d: D form. Aib = CC(C)(N)C(=O)O

Assays:
[1] = target: isolated N-terminal extracellular domain of the GLP-1 receptor (nGLP-1R) (UniProt P43220); assay: SPA competition: displacement of 125I-Exendin-4(9-39) from nGLP-1R
human GLP-1 receptor [2] = target: T1, human GLP-1 receptor (human, UniProt P43220 24-463); assay: cell-based or functional assay
[3] = target: T2, isolated N-terminal extracellular domain of the GLP-1 receptor (nGLP-1R) (UniProt P43220 24-145, limits assumed, biotinylated with BNHS, immobilized on streptavidin-coated SPA beads); assay: SPA competition: displacement of 125I-Exendin-4(9-39) from biotinylated nGLP-1R on streptavidin SPA beads
T2 construct: extracellular domain; also called N-terminal GLP-1 receptor
Procedure: The nGLP1R in 0.1M NaHCO₃ was biotinylated using 75 μg BNHS (Sigma H1759) to 1 mg protein. The biotinylated nGLP1R was subsequently dialyzed against PBS. All reagents and derivatives were diluted in PBS with 0.05% v/v Tween 20. […] The plates were incubated on a shaker at RT for 3 hours. The SPA particles were spun down by centrifugation for 10 min at 1500 rpm and the plates were counted in a TopCount-NXT (PerkinElmer).

human GLP-1 receptor [4] = target: T1, human GLP-1 receptor; assay: SPA competition: displacement of 125I-GLP-1 from BHK tk-ts13 membranes with the human GLP-1 receptor
Procedure: Test compounds/peptides, membranes, SPA-particles and [¹²⁵I] are diluted in assay buffer. 25 ul (micro liter) of test compounds/peptides are added to Optiplate. Buffer is added (50 ul). Add 5-10 ug protein/sample (50 ul) corresponding to 0.1-0.2 mg protein/ml (to be preferably optimised for each membrane preparation). Add SPA-particles (Wheatgerm agglutinin SPA beads) RPNQ 0001) 0.5 mg/well (50 ul). […] The plates are sealed with PlateSealer. Incubate for 120 minutes at 30° C. while shaking. The plates are centrifuged (1500 rpm, 10 min) and counted in Topcounter.

Row | Molecule | EC50 (potency, stimulation of cAMP formation) (human GLP-1 receptor [2]) [nM] | also measured
1 | liraglutide (peptide) |  | IC50 [1]: 1500 nM
2 | HAEGTFTSDVSSYLEEQAAREFIAWLV-OH [[Glu22, Arg26]GLP-1(7-33)peptide] | < 0.3 | 
3 | HAEGTFTSDVSSYLEEQAAREFIAWLV-NH2 [[Glu22, Arg26]GLP-1 (7-33) Amide] | < 0.3 | 
4 | HAEGTFTSDVSSYLEEQAVREFIAWLV-NH2 [[Glu22, Val25, Arg26] GLP-1 (7-33)amide] | < 0.3 | 
5 | HAEGTFTSDVSSYLEGQAAKEFIAWLV (ends and bridges not checked, also called truncated natural GLP-1; truncated natural GLP-1(7-3)) peptide) [truncated natural, human GLP-1(7-33)] | 11.3 | IC50 [3]: 886 nM; IC50 (human GLP-1 receptor [4]): 241 nM
6 | H[Aib]EGTFTSDVSSYKEEQAVREFIEWLV-NH2 (N-terminus assumed; SMILES CC[C@H](C)[C@H](NC(=O)[C@H](Cc1ccccc1)NC(=O)[C@H](CCC(=O)O)NC(=O)[C@H](CCCNC(=N)N)NC(=O)[C@@H](NC(=O)[C@H](C)NC(=O)[C@H](CCC(N)=O)NC(=O)[C@H](CCC(=O)O)NC(=O)[C@H](CCC(=O)O)NC(=O)[C@H](CCCCN)NC(=O)[C@H](Cc1ccc(O)cc1)NC(=O)[C@H](CO)NC(=O)[C@H](CO)NC(=O)[C@@H](NC(=O)[C@H](CC(=O)O)NC(=O)[C@H](CO)NC(=O)[C@@H](NC(=O)[C@H](Cc1ccccc1)NC(=O)[C@@H](NC(=O)CNC(=O)[C@H](CCC(=O)O)NC(=O)C(C)(C)NC(=O)[C@@H](N)Cc1c[nH]cn1)[C@@H](C)O)[C@@H](C)O)C(C)C)C(C)C)C(=O)N[C@@H](CCC(=O)O)C(=O)N[C@@H](Cc1c[nH]c2ccccc12)C(=O)N[C@@H](CC(C)C)C(=O)N[C@H](C(N)=O)C(C)C) [[Aib8, Lys20, Glu22, Val25, Arg26, Glu30] GLP-1 (7-33) Amide] | < 0.3 | 
